Experimental data as given in the DeepSol protein solubility set.

Assay: soluble on expression in E. coli; label from the status in PepcDB or PDB records

Sequence | soluble on expression in E. coli
MGSDKIHHHHHHLKEAILSPRFYTTDFKAIDRLEIDRNGLRDEFDWIRDEFAYDYNRTHFRRTDEFLQDFDDMPERDSFIDFLERSCTAEFSGCLLYAEMVKHLHDPTLRAIFKYMSRDEGRHAGFLNRTMADLNVALDLTVLQKRKKYTYFQPKFIFYSVYLSEKIGYSRYITIYRHLERNPQYCIHPIFKWFEQWCNDEYRHGEFFALLMRSQPEMLEGVNRRWIRFFLLAVYATMYLNDARRSNFYAALGLDWRDYDQTVIRLCNDIATQVYPETMNLDDPRFFAYMDKLVEYDRALRALESRKDPIAMAHSTRLKAAIALRLLAIYRLPTRKTTEAIRWKGLPGFPNYPGPNRPQRVVAAD | not soluble
MGSDKIHHHHHHLMCCASRSVPRWPDNIFTEFLSPKRALGPEPCRPRMTPFWRAGQLCPSVQDRRVFSCEPPCAVFPRWRTMRRAYLLKQEVLPMKISVIGASRGIGRKVVEEALERGHSVTGMARSATSLGIDHAEFTAIDGDATNATDVTQAIDGADAVILTLGVPKDARVLKSTTLFSDATRTLITAMEEAGIKRLLTVTGFGAGDSKEKLSTPERLTQKAFLGRAYADKDLQEKLIRDSDLDWTIARPGILSDNRKSNAYKVLVEKETWRNGLINRSDVADFLVTAAEDESHIHKTPALQR | not soluble
MGSDKIHHHHHHLNAAAQTTPEIRRPQLGWTMLETPRFLSETALLALAWPMLAKAPQGDGHPVMVLPGFATNDTMTVLLRSFLARLGYQVFPWDLGWNLDQHSAGENGEHLAARIDAIAAETGRKVSLVGWSLGGVIAREAARRDHGGLRQVVTLGSPFTGNPRATSLTSLYELLTGNKASSEKSAARYARGHHPLPVPSTAIFSRTDGITAWENCVSETDDRTENIEVHCSHFGFVANPGVFWAVADRLAQPEGQWRKFDPKGCFAAFYP | not soluble
MGSDKIHHHHHHLSIARETGSILLIPSTTTLRRAFDFETTFNDSIQFVGEDLSRQLAEDLNASKITLTSCCAYRNLSTILFNDSRIIERIDGYFQNFRYFHPDSQKIVKKLFTFMDPVRKRVSFWNIIYWNIHPTNHRKKPEKSTVSIFSFVTFQLRVDEFLENVGISLTVRNARVIETNVANDDQALELPEEDAFAKTMMVGVHIRHGMDISMNSRNRIHGHVDTPIEYYKRAIQQISKIYENVAFIICSDNVAWARRNLKLGKETLHFFCPGPREVDMAILKSCDSVIISTGTFGWWSAYLNVNASPDVYYYKHWPAPGSVMEKMTNKTEYF | not soluble
MGSDKIHHHHHHLYNNSANTQFTGKSIHFLPSCHSTNTEASLLIRAQKAVNGLIVITNEQTAGRGQQGNSWLSKADSNLTFSVIFFPEKLHLKDSFYLNIVSSLSIAKTVDELVPENIVKVKWPNDILLNNKKVCGILIENMLRGEHIHAVVMGIGVNVNHSDGNLPFAGAMSSEAAKTFHLQEVFTRICENLEPYYLMLEQGLFAELDALYLQNLYGLNEKKHFSDSEGNFTGTIQAVLPGGLLQVEKESGVIKQYTFKEVSLVK | not soluble
MGSDKIHHHHHHMAAIGSYNITLLNRESIKENAAYPIADNVEVIALSGSLFEFYKKLKKQISSNNYDVVVVHNMGKLSLLCAFVPNIKKLVVLEHVSFISRPKKIQILSKFLYRNIDQVVTLTQNDKEQFDKFHSNVIVIPNFSPFSIASQPQNNGKQIVTIGRLTDQKNYIHLLQAWKKIYQSIPDWQLNIYGEGEQEEMLQDYIKQQSLKNVSLKGSTSNVKEVYEQSSFFVMSSKYEGLPMVLIEAQSFGLPIVSYNCPYGPSDVIRDSKNGFLVEDQNVDELAAAVLKVALSPQLLEQFSQSSLLNAKKYQPEQILKIWIEKVLEG | not soluble
MGSDKIHHHHHHMAATFGPRIARADENGQGSEHVALSWQKMDASGWRSGEASPAALHSDHHCRRGFAMSTRDADDRREYYRIEDTLALEFRPAGAVEDGLESEPGATLFSLLSDLHLMDYESQHLLRHISERDRTLANYLKVMNKRIDLLGQVMVQSLLKEIGEPRKVSLSEGGVSFRHDRALPVGQLLVLRMVLLPQGFGLELRARVIHAQPHDDEFEIGTEFEALSDAQRQLLARHILQKQAQQRRLARAGQGPLGEPGQPSST | not soluble
MGSDKIHHHHHHMAAVLLTGHGGPEKLVYRTDVKVPSPDPGEVLVEVSACGMNNTDVWVRQGAYGTEEDAAAVSTWRRQGNTLVFPRIQGTDTVGTIVSVGEGVSPERIGERVMVDFSIYNRDDDSLADIDYMGHGRDGGYAEYQTVPAENAHVVDTDMSDVELATFCCAYLTGEQMLERAGLKAGERVLVTGASGGVGSGIVQLARARGAIPYAVVGKGKEQAVLDIGAEAVITRGVADLPRAVAEVTGGQPIDVVADLVGGAIFNDLLRILRPEGRYTTAGAIAGPVVQLDLRTMYLKQLQLHGSSQGTRADFRRIVGYIEAKKIRPLVGGVYRLSDFHRAQADFVAKDFVGKLVVVPDAIAERQA | not soluble
MGSDKIHHHHHHMADDQEKLLIDEEETVQIKDLNKVTTVNDTDLLLLDDGAASSNAITFKNFLDASKDKIFKGEGLDYFKQIIKSTIAEELAADKDFVEKIYAKITDKLINNDSTNISNLFSKIKSRLTDSISSATLSRSDHLLIMPSSDTIQKTPVPKHILGVPSNLAYGSITRSTTLYPSDYENNAIFINMEDNDDVTLIFSKSYDNSPVYLDIEIQVKINDNRMQKKSLKLQYSDETTYNRVYEIAGPRGLFTRIPIYKGWYVQKRASLYGDPVPDLLKL | not soluble
MGSDKIHHHHHHMAEDQTVLAIDIGGSHVKIGLSTDGEERKVESGKTMTGPEMVAAVTAMAKDMTYDVIAMGYPGPVVHNKPLREPVNLGEGWVGYDYEGAFGRPVRIVNDALMQAIGSYNGGRMLFLGLGTGLGAAMIVENVAQPMEIAHLPYRKGKTYEHYVSEAYREKKGNAKWQKRVQDVVERLSAALEPDEVVIGGGNVERLENLPPKCRRGDNAMAFEGGFRLWKNADLIV | not soluble
MGSDKIHHHHHHMAFNFGCLNSPETVSSALATRENSLGLAIDPFLAPVAMVATQDIVLRQYFRERIVLGQENLPMQGPVLLAPTHRSRWDALMLPMAAGRRVTGRDCRFMVTVDEMKGLQGWFLHRLGCFPVNQSKPSLTSLRYAIDLMADGQQVVVFPEGTINRTEKPIKLYQGLARLAQLAKSQNIDVQVVPVGLGYSEVIPKACGRASICFAEPMKVLETGREAVKSFNAELSEKMHAAEQAALHAVGRLKKAP | not soluble
MGSDKIHHHHHHMAHVNTNGIQIEYEVFGKRTNPTIVLIAGNGAQLNFWESDFCEMLAQHNLQVIRFDNRDAGLSTKFDAAGIPDMSKIYQAAQEGKPIKTAYTLEDMADDVAGLLDALEIKKAHICGASMGGMIAQVFAYRHPLRICSLISIMSSTGNPNNPKISQETLEIVTATPPNQRGAYIEYTVHMWKKLWSKGFPFEEERAIRYTEESYDRCYYPQGAVRQNAALVANGDRRKYLSLLRVPTLVIHGTADPLIPVEAGKDTARTIPNAKLLLIEGMGHDMPKGTWKCIVEAIVSLVRDTSHSCWR | not soluble
MGSDKIHHHHHHMAIACVFTRASCGVEAPRVTVEVHLSNGLPAFNLVGLPETSVKEAKERVRSALINAGFEFPQKRITVNLAPADLPKQGGRYDLPIAVGILAASNQVPAKALHQCEFVGGLALSGQIRPCSGLLPAIIAARNDQHHFFMPIENRHEAELVGYKHSYFVAHLQNLAAFLHGQAQLPLLDTLPEWIEEEIQAQSSLCMSDVIGQYQAKHGLEIAAAGGHNMLFIGPPGTGKSMLANRIIPLLPKLTYDEAIEVAAIHSVAGLHVKPQNFLNRPFRSPHHTSSSIALIGGGSHPKPGEISLAHRGILFLDEIAEFPRKVLDCLREPLETGQVEISRAAAKLTFLSRFQLIAAMNPSPCGDTERARSTPDQIQRYLSRLSGPFLDRFDLTVDVPKLPAGTLTQQHQPSESSVEIAKRVKQARDLQLSRSGVLNSELTPKQLKQDGAITQPDLAFLEQSVVSLGLSVRSFHRIQRVSRTIADLQQSPTTERSHIAQALGYRAMDRLLAKLNQQ | not soluble
